# Experimental data as given in the DeepSol protein solubility set.
# Experiment: soluble on expression in E. coli; label from the status in PepcDB or PDB records
row,Sequence,soluble on expression in E. coli
1,MSALASKLFAKCAAGGRALQSQAVRQFSAYPIDDSMFGLNDEEIALRQSIRQFADKELAPYADKIDKDNGWDQLRPFWKKLGDQGLLGITAPAEYGGSGMNYFSHVIAMEELSRAAGGIALSYGAHSNLCINQIVRNGSEEQRKKYLPKLISGEHMGALAMSEAQAGSDVVSMKLRAEKKGDKYVLNGTKFWITNGPDADVLVVYAKTDPSKHQHGITCFLVEKNTPGFSQSPKLDKLGMRGSNTCELVFDNCEIHESQIMGGKGKGVYVLMTGLDYERLVLSGGPLGLMQAACDIAFDYAHQRTAFGQKIGSFQLLQGKLADMYTTLNASRSYLYMVAKAADKGNVSNKDCAGVILYVAEKCTQVCLDAIQILGGNGYINDYPAGRLLRDAKLYEIGAGTSEVRRLIIGRALNKEYSN,not soluble
2,MSALKSFTVNFHQEDNAKATTVHKLSEEDFNKATEKGTRHLFDLDTNVGFFVFFDAEDAEGNDQYLMLQYEGDHEEPTACYGFDLKLYYQFLALYLNDLEFQGETDEEEEEYGPIHHLAHLLYHIVEDGKSIEV,not soluble
3,MSANQEEDKKPGDGGAHINLKVKGQDGNEVFFRIKRSTQLKKLMNAYCDRQSVDMNSIAFLFDGRRLRAEQTPDELDMEDGDEIDAMLHQTGGSGGGATA,soluble
4,MSASESDLAIVAEQLGREPRGVIEVSYHTPDGVPGVVMTTPKLDDGTPFPTLYYLTEPRLTAEASRLEVAHVMKWMTDRLHSDEELRQDYERAHEYFLAKRNALEDLGTDFSGGGMPDRVKCLHVLIAYALAEGPDHFRLGTEAVALAADHGGLRGTAIPQDWPTVESLGMSLDQFDFSHADVPGASK,not soluble
5,MSASLVETVDIEAPVAVTWALWSDVSRWPSFLSHVRLVEPLDERRFAWQLSLPGADKNFVAELTEVIPGDRIAWQTTEGVHHAGVVTFHRLSDTSSRVTLQIEYDPKGFVEHIGALTNLDSTLANYDLGEFQKLAETAAAGLEHHHHHH,not soluble
6,MSASRQRPGNHLLPTLFDRLCDDAPNQKRDHGISVSPVQIKEIIRRDLSFLLNTVSHEDDIDAARYPYAAASVLNYGLPPLAGSFLYEHKWDDIRRAILRTITRFEPRLKASTLQIIPLQDERRQSGHNTLQFEIRGEILTQPYPTAFRVRSALDMEQSRITFF,not soluble
7,MSCMGAAVNIITTDGPAGRAGFTASAVCSVTDTPPTLLVCLNRGASVWPVFNENRTLCVNTLSAGQEPLSNLFGGKTPMEHRFAAARWQTGVTGCPQLEEALVSFDCRISQVVSVGTHDILFCAIEAIHRHTTPYGLVWFDRSYHALMRPAC,not soluble
8,MSCYIYWDKIKRIASRLEGMNYHFDEMDTSGVMPLLDEIEEIAHDSTIDFESAKHILDDAEMNHALSLIRKFYVNLGMKLQMEKAQEVIESDSPWETLRSFYFYPRYLELLKNEAALGRFRRGERAVFIGGGPLPLTGILLSHVYGMRVNVVEIEPDIAELSRKVIEGLGVDGVNVITGDETVIDGLEFDVLMVAALAEPKRRVFRNIHRYVDTETRIIYRTYTGMRAILYAPVSDDDITGFRRAGVVLPSGKVNNTSVLVFKCPDKGELNSKLEGKPIPNPLLGLDSTRTGHHHHHH,soluble
9,MSDAAKPDRPDEALVLEYDFDAPPAKVWRAVTIPALRERWSPDCDLAGAEPESTIAGEEVRYRLRDSEPPFRESHVIFRIEPNEDGGTRFRIIQQACDDLAKLPQPANTNCRLMMAALEHHHHHH,soluble
10,MSDDEDEGRLQIDESPSDSEDKPSISAPPPLPPPLQETPEFQTTYDAHDQAETSGKEDGELDEDDENDDIEPMEIDEEIQLEIDEKPEDLVKDEQISEPTDKMREEFLKVEKTDENAVVESTSSFSPKLIDEQDLKVEEMSDEKHAQSPVSSDMTTSKSPTPSKKENGLMKPPQSTEKAQRKRKESTDIFSSEKRKLSLETVASSSSSSGSSNLSTTPQRSKRSSSHMATIAISACFTDEDIVSVPMMPIQKTPDTAPHSKRAKRDIGTNVITTRSTDTSGLLCNEAIMDTPPGSQMTLEVTVMYRTKNSLAFRVKGCDLIGFIGDGLPPMASSLTNNIASSMGNNNNKKKTASSSGNEEGKDGRSSSASSNGRGARGGSVLKDGKGDKQKGKRKKEETNDDDLEDENQNNEQYGSKKCELVEVDVAQLHDCHYDGCEKRFQKTTDLEYHISKNHKRRVMMYESICTQTSISSLETQNNSTQIDDDLPPMPQMPILKKEVPIKTPIGNVYEDLSDDDSETKPTDLVLKTPSSSASSAVATLMGIAQVSSSTTSATTSVVPPVGAQRSTPATPVSAKIGINPSMVANALAEKNKQQQQQQQKLNQLQPPHNPSLSTAPSSSSAQPPTMIQAHPMAGVFIPPPFHPAMMNPQMAAMMDQQRIAVAMSQQQQMSRTPSRQTISVSDSHKIHELAKSRENQQRQQSATPKTPSESVSTTGVVTPQRQFLPPQMMQPGTPQSILLQQQQQQQQQQQQAAAQHQIIQQMQMQMQRGMAPQMANQELLMMMMGMPHMVQGVPGFPGVPQLPPK,soluble
11,MSDHDRDFDVVVVGGGHNGLVAAAYLARAGLRVRLLERLAQTGGAAVSIQAFDGVEVALSRYSYLVSLLPSRIVADLGAPVRLARRPFSSYTPAPATAGRSGLLIGPTGEPRAAHLAAIGAAPDAHGFAAFYRRCRLVTARLWPTLIEPLRTREQARRDIVEYGGHEAAAAWQAMVDEPIGHAIAGAVANDLLRGVIATDALIGTFARMHEPSLMQNICFLYHLVGGGTGVWHVPIGGMGSVTSALATAAARHGAEIVTGADVFALDPDGTVRYHSDGSDGAEHLVRGRFVLVGVTPAVLASLLGEPVAALAPGAQVKVNMVVRRLPRLRDDSVTPQQAFAGTFHVNETWSQLDAAYSQAASGRLPDPLPCEAYCHSLTDPSILSARLRDAGAQTLTVFGLHTPHSVFGDTEGLAERLTAAVLASLNSVLAEPIQDVLWTDAQSKPCIETTTTLDLQRTLGMTGGNIFHGALSWPFADNDDPLDTPARQWGVATDHERIMLCGSGARRGGAVSGIGGHNAAMAVLACLASRRKSPLEHHHHHH,not soluble
12,MSDLHTKLGSGMNKLQEGIEQGKMKLQVAQEIAQLKKGMQVQMQKKAEVLLEVGQQVYVQLRGSGVNEASLKEMIAPVQEFDVAIYQARKRIVELQKQQGEKATCECGGPLSINDKFCGSCGKPNPMLTVENEGETVNCISCNEHIDKNSTYCPVCGIKQSGE,not soluble
13,MSDLPRKAVTRTAKLAALPLGFAGRATWGLGKRIVGESAEIVGQQLQQRTAEQLFKVLGELKGGAMKFGQALSVFESALPEEVAGPYRAALTKLQEAAPPMPTRTVHSVLAERLGEDWQELFLEFEDKPAAAASIGQVHRGVWQDGREVAVKVQYPGAGEALLSDLNQLSRFARLLGPLVPGMDIKPLITELKDRVSEELDYDLEAQAQRTHAEVFDDDPDIVVPDVIHQCEQVLITEWIDGIPMSEIISNGTQEQRDRAGQLLAHFLFSGPARTGLLHADPHPGNFRLLPGGPRGEDDWRLGVLDFGTVDRLPGGLPEPIGEALRMTLDGEAEAVYEMLCAEGFVKESIELAPDAVLEYLLPIIEPARVDAFTFTRGWMRSQAARIGDPRSPAYQLAKQLNLPPAYLLIHRVTLSTIGVLCQLGATVRLRDELEEWLVGFVAEGEAEVEEGEEADEDVYETEGTAAEALEHHHHHH,not soluble
14,MSDLYVTKEGDMVDAICWRYYAKGQQALAVERVYAANFGLADYGPILKAGITIVLPILPYPKATPVIRIWGSQS,not soluble
15,MSDNDDDFMCDDDEDYGLEYSEDSNSEPDVDLENQYYNSKALKEEEPKAALASFQKVLDLENGEKGEWGFKALKQMIKINFRLCNYDEMMVRYKQLLTYIKSAVTRNHSEKSINSILDYISTSKNMALLQNFYETTLDALRDAKNDRLWFKTNTKLGKLYFDRSDFTKLQKILKQLHQSCQTDDGEDDLKKGTQLLEIYALEIQMYTVQKNNKKLKALYEQSLHIKSAIPHPLIMGVIRECGGKMHLREGEFEKAHTDFFEAFKNYDESGSPRRTTCLKYLVLANMLMKSGINPFDSQEAKPYKNDPEILAMTNLVNSYQNNDINEFETILRQHRSNIMADQFIREHIEDLLRNIRTQVLIKLIRPYKNIAIPFIANALNIEPAEVESLLVSCILDDTIKGRIDQVNQVLQLDKINSSASRYNALEKWSNQIQSLQFAVVQKMA,soluble
16,MSDNLPWKTWTPDDLAPPPAEFVPMVESEETIIEEAEPSLEQQLAQLQMQAHEQGYQAGIAEGRQQGHEQGYQEGLAQGLEQGLAEAKAQQAPIHARMQQLVSEFQTTLDALDSVIASRLMQMALEAARQVIGQTPTVDNSALIKQIQQLLQQEPLFSGKPQLRVHPDDLQRVDDMLGATLSLHGWRLRGDPTLHPGGCKVSADEGDLDASVATRWQELCRLAAPGVV,not soluble
17,MSDRKAVIKNADMSEDMQQDAVDCATQAMEKYNIEKDIAAYIKKEFDKKYNPTWHCIVGRSGNFGSYVTHETKHFIYFYLGQVAILLFKSG,soluble
18,MSDSLPQRNGGQILVEALRRNAVDTVYCIPGESYLPVLDALYDTDGIRTVVTRHEGAASNMADAYGKLTGRPGICFVTRGPGATHAANGVHTAQQDSTPMILFVGQVESAFKGREAFQEVDYVQMFSGLAKWAVEIDRIERIPEIVGRAFSVATSGRPGPVVVALPEEILFGSAQVADAPEPRVLPGRPGATAMAELRELLANARRPLLVLGGSGWDSAARKRLGAFVEANGLPVATSFRRQDLFDNRDPHYAGQLGFGAAPALLERLRQADLLLVVGARLGETPSAGYSLVRSPAPAQTLIHVHPDSAELNRVYLARLPIQATPCAFAEALADLAPLPSSTWQDWREAAHADYLAYSTPAASDPAVQGVDLASVVAYLSENLPDDAVIANGAGNYAVWVHRFYRYRQARTQLAPTNGAMGYGLPAAIAASLRDPQRSVVCFAGDGCFMMYPQELATAAQFGATPVVIVVNNGMLGTIRMHQEREYPGRVSATRLDNPDFVALARAFGAHAERVECSADFPAAFRRARESGRPALLELLTDPRQITPQA,not soluble
19,MSDTEKYVARPAVGHLPLDDSWTPTSAEAIQDEPSPDEEEYKRQYTCRMVPNEGPLYQHYMLEAVAVADDEVKIPLEEVKEEPVELPAAVVHEVVALKPATRRESSISSDSGRGADCSTTSASALTSNTSMRRDRLVGTSNFGSQRSLWCELPEVRAAGLLEKLDDECKLRQEAYFEVITSEASYLRSLNVLITHFMASPQMLGSKSALSVLSDSDRKHLFSNIFAVRDCSERLLCDLETRLEENLILDDICDILSDHFDKHFEVYIKYCSNQVYQDRTLRRLKTENPGFLSAVQRLEENKQCQGLDMRSFLMLPMQRVTRYPLLLYAILDRITTTDDRYKTATDALTSSNRVVRDCNEGARRMERTEQLLDIDRRLIYKDADLKRIPLVSNSRYLVKKGVLTQLVERRSSNILQSRQKARTLHVFLFSDMIMITKKKLNGTFVCKDYAARRFVDMQPIEPDNPKIPLGATSNLVGRPHLFLCTLMRNARDKQTELLLSADSETDRERWLSAVRPPTSTNPEEKIYAEWDCPQALVVHAYQPSQADELQLNIGDSLNILRKMPDGWLYGERAGDGLGGWFPSSYVQAIINDHTRANNYRQRLRIIQAASGWHGNASPSSTRSGGMPLMDRLRRMSNPKTYFQSGTVGL,not soluble
20,MSDTPKYTQDQVIAIKNRILEALETVIDPELGIDVVNLGLIYEIRFNDNGYTEIDMTLTTMGCPLADLLTDYIHDALQDVPEVTKTEVKLVWYPAWTVDKMSRYARIALGIR,not soluble
21,MSDVDVFVIDDDFDPLADLSLDDGERDDAEADYLPPIPDADKSVVPPVVPLSATERIEKLLAGIPGQQFRLLHAVEFCTEPKTMDEAVADLDAAYPNTTSVYGSAQVVQLLERDGALERIVDEDAAHAAAGDAADTPAEDEGFISVTPAPPCRYRATQAGLDAVAAHVNEGLVAERISEDERYLPIFQRVLEMCAREGGCPTKELDQAVDGDPLCQEPRRFCGFFRGKLEETGAIEWRDAWTITDLGRSVLASGLFAAASPSER,not soluble
